The text below walks through data of patent US20220185898A1 (Alector, published 2022).

Test [1] has as its target T1, human Sortilin Fc fusion protein (human, UniProt Q99523 78-755).
T1 construct: whole entry named; also called hSort-Fc
Description: ForteBio, avid.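 Note: whole IgG captured on AHQ sensors, then contacted with Sortilin Fc fusion antigen at 100 nM, followed by an off-rate phase in buffer.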 Background: Biolayer interferometry detects binding as a change in optical thickness at a sensor tip.
Description: (§1) The affinity for the Sortilin antibodies was determined by measuring their KD by ForteBio. […] Briefly, ForteBio affinity measurements were performed by loading IgGs on-line onto AHQ sensors. Sensors were equilibrated off-line in assay buffer for 30 min and then monitored on-line for 60 seconds for baseline establishment. For avid binding measurement, sensors with loaded IgGs were exposed to 100 nM antigen (human or mouse Sortilin Fc fusion) for 3, afterwards they were transferred to assay buffer for 3 min for off-rate measurement.
(§2) The binding affinity of each anti-Sortilin antibody was determined by measuring their KD by ForteBio or MSD-SET at room temperature. […] Briefly, ForteBio affinity measurements were performed by loading IgGs on-line onto AHQ sensors. Sensors were equilibrated off-line in assay buffer for 30 min and then monitored on-line for 60 seconds for baseline establishment. Sensors with loaded IgGs were exposed to 100 nM antigen for 5 minutes, then transferred to assay buffer for 5 min for off-rate measurement. Kinetics were analyzed using the 1:1 binding model.

Test [2] addresses T2, mouse Sortilin Fc fusion protein (mouse; human, UniProt Q6PHU5 74-754).
T2 construct: whole entry named; also called mSort-Fc
The experiment in a line: ForteBio, avid.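 Note: whole IgG captured on AHQ sensors, then contacted with Sortilin Fc fusion antigen at 100 nM, followed by an off-rate phase in buffer.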
Description: as §1, §2

In test [3] the target is T3, mouse Sortilin expressed on 293 / HEK293T cells (mouse, UniProt Q6PHU5 74-825).
T3 construct: full-length recombinant mouse Sortilin; also called mSort; msSort
The experiment in a line: cell binding, HEK293T, FACS.

Test [4] addresses T4, human Sortilin expressed on 293 / HEK293T cells (human, UniProt Q99523 78-830).
T4 construct: full-length recombinant human Sortilin; also called hSort; SORT1
Description: cell binding, HEK293T, FACS.

For test [5], the target named is T3, mouse Sortilin expressed on 293 / …. The experiment in a line: FACS, 293 cells.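 Note: antibodies at 10 µg/ml bound to cells for 1 h on ice, detected with PE-labelled anti-human secondary antibody by flow cytometry, reported as mean fluorescence intensity.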 On the technique in general: Flow cytometry measures light scatter and fluorescence of single cells or particles in a stream.
Description: (§3) Cells were harvested, plated at 10⁵/ml in a 96 well plate, washed, and incubated in 100 μl PBS containing 10 μg/ml Mab and 2% FBS for 1 hour in ice. Cells were then washed twice and incubated in 100 μl PBS+2% FBS containing 5 μg/ml PE-conjugated anti-human secondary antibody for 30 minutes in ice. Cells were washed twice in cold PBS and data was acquired on a BD FACS Canto. Data analysis and calculation of MFI values was performed with FlowJo (TreeStar) software version 10.0.7.
Test [6] addresses T4, human Sortilin expressed on 293 / …. Description: FACS, 293 cells.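 Note: antibodies at 10 µg/ml bound to cells for 1 h on ice, detected with PE-labelled anti-human secondary antibody by flow cytometry, reported as mean fluorescence intensity.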
Description: as §3
The target of test [7] is T5, biotinylated human Sortilin monomer (human, UniProt Q99523 78-755, limits assumed, biotinylated (Sulfo-NHS-biotin)).
T5 construct: monomer cut from the Fc fusion with IdeS; used unbiotinylated in solution in some formats; also called Bt-hSort; b-H Sort
Description: ForteBio, Fab.
Description: (§4) The affinity of the anti-Sortilin antibodies was determined by measuring their KD by ForteBio and MSD. […] Briefly, ForteBio affinity measurements were performed by loading immunoglobulins (IgGs) on-line onto AHQ sensors. Sensors were equilibrated off-line in assay buffer for 30 min and then monitored on-line for 60 seconds for baseline establishment. For avid binding measurement, sensors with loaded IgGs were exposed to 100 nM antigen (human or mouse Sortilin Fc fusion) for 3 min, afterwards they were transferred to assay buffer for 3 min for off-rate measurement. […] Monovalent binding measurements were obtained by loading human or mouse Sortilin Fc fusion antigens to AHQ sensor and followed by exposure to −100 nM Sortilin antibody Fab. […] Kinetics data were fit using a 1:1 binding model in the data analysis software provided by ForteBio.

For test [8], the target named is T6, biotinylated mouse Sortilin monomer (mouse, UniProt Q6PHU5 74-754, limits assumed, biotinylated).
T6 construct: also called Bt-msSort
Description: ForteBio, Fab.
Description: as §4

The target of test [9] is T5, biotinylated human Sortilin monomer. The experiment in a line: MSD-SET, Fab.
Description: (§5) Antibodies (20 nM in PBS) were coated onto standard bind MSD-ECL plates overnight at 4° C. or at room temperature for 30 min. Plates were then blocked with 1% BSA for 30 min with shaking at 700 rpm, followed by three washes with wash buffer (PB SF+0.05% Tween 20). SET samples were applied and incubated on the plates for 150 s with shaking at 700 rpm followed by one wash. Antigen captured on a plate was detected with 250 ng/ml sulfotag-labeled streptavidin in PBSF by incubation on the plate for 3 min. The plates were washed three times with wash buffer and then read on the MSD Sector Imager 2400 instrument using 1× Read Buffer T with surfactant. The percent free antigen was plotted as a function of titrated antibody in Prism and fit to a quadratic equation to extract the KD. To improve throughput, liquid handling robots were used throughout MSD-SET experiments, including SET sample preparation.
Test [10] deals with T7, recombinant human Sortilin, His-tagged (R&D Systems) (human, UniProt Q99523 78-755).
T7 construct: bought; whole entry named; also called His-captured SORT1
The experiment in a line: Biacore SPR, His-captured Sortilin. (In SPR one partner is held on a chip, and binding of the other changes the refractive index at the surface.)

The target of test [11] is T3, mouse Sortilin expressed on 293 / …. Description: FACS, time course of binding and endocytosis of human PGRN-DyLight650 by HEK293T cells expressing mouse Sortilin.
Test [12] deals with T7, recombinant human Sortilin, His-tagged …. Description: ELISA, biotinylated PGRN on immobilized Sortilin.
For test [13], the target named is T6, biotinylated mouse Sortilin monomer. The experiment in a line: MSD-SET, Fab.
Description: as §5
Test [14] concerns the target T3, mouse Sortilin expressed on 293 / …. The experiment in a line: FACS, HEK293T + msSort.
Description: (§6) Antibodies were diluted in FACS buffer (PBS+2% FBS+0.01% NaAzide). After incubation on ice for 1 h, cells were washed three times in FACS buffer and incubated with anti-human PE conjugated secondary antibody (BD Biosciences, 1:100 dilution) for 30 min on ice. Then cells were washed twice in 200 ul FACS buffer, and subsequently analyzed on a FACS Canto or iQE FACS screening instrument (Intellicyt Corp).
Test [15] concerns the target T4, human Sortilin expressed on 293 / …. The experiment in a line: FACS, HEK293T + hSort.
Description: as §6
In test [16] the target is T5, biotinylated human Sortilin monomer. The experiment in a line: ForteBio, peptide format: human Sortilin monomer (100 nM) on biotinylated PGRN peptide on SA sensors.
Description: SA sensors were soaked in PBS for 10 min prior to analysis. […] The data was prepared for analysis with ForteBio Data Analysis Software version 8.1.0.36 as follows. The data was y-axis aligned and inter-step corrected to the beginning of the Sortilin capture step and then cropped to show only the Sortilin capture and antibody interaction steps.

Numbering of substitutions follows the chain as printed. No end group written: not given here. *: point of attachment. Biotin = O=C1N[C@H]2[C@H](CS[C@H]2CCCCC(=O)*)N1

B1: S-2 (antibody, V domains shown)
VH: not shown
VL: DIQMTQSPSSLSASVGDRVTITCRASQSISSYLNWYQQKPGKAPKLLIYAASSLQSGVPSRFSGSGSGTDFTLTISSLQPEDFATYYCQQSDVSPITFGGGTKVEIK
notes: IgG; also called S-02
For the molecule B1, the Kd was determined as 0.517 nM in [1], 1.07 nM in test [2], 6.6 nM in [3] and 1.1 nM in test [4]. Moreover, the MFI in test [5] amounted to 22400; in test [6] it was 8430.

B2: S-2-11 Fab (Fab, V domains shown)
VH: QVQLVQSGAEVKKPGASVKVSCKASGYTFLAYYMHWVRQAPGQGLEWMGWINPSWGSTSYAQKFQGRVTMTRDTSISTAYMELSRLRSDDTAVYYCARGKRSSGWYEGYGMDVWGQGTTVTVSS
VL: B1 VL
notes: Fab by papain digestion
Take B2: the Kd in test [7] is 0.261 nM; in test [8], 7.59 nM; in [9], 0.011 nM.

B3: recombinant human Progranulin (Adipogen) (ligand, UniProt P28799 18-593, looked up)
chain: TRCPDGQFCPVACCLDPGGASYSCCRPLLDKWPTTLSRHLGGPCQVDAHCSAGHSCIFTVSGTSSCCPFPEAVACGDGHHCCPRGFHCSADGRSCFQRSGNNSVGAIQCPDSQFECPDFSTCCVMVDGSWGCCPMPQASCCEDRVHCCPHGAFCDLVHTRCITPTGTHPLAKKLPAQRTNRAVALSSSVMCPDARSRCPDGSTCCELPSGKYGCCPMPNATCCSDHLHCCPQDTVCDLIQSKCLSKENATTDLLTKLPAHTVGDVKCDMEVSCPDGYTCCRLQSGAWGCCPFTQAVCCEDHIHCCPAGFTCDTQKGTCEQGPHQVPWMEKAPAHLSLPDPQALKRDVPCDNVSSCPSSDTCCQLTSGEWGCCPIPEAVCCSDHQHCCPQGYTCVAEGQCQRGSEIVAGLEKMPARRASLSHPRDIGCDQHTSCPVGQTCCPSLGGSWACCQLPHAVCCEDRQHCCPAGYTCNVKARSCEKEVVSAQPATFLARSPHVGVKDVECGEGHFCHDNQTCCRDNRQGWACCPYRQGVCCADRRHCCPAGFRCAARGTKCLRREAPRWDAPLRDPALRQLL
modifications: biotinylated or DyLight650-labelled in some assays
notes: also called hPGRN; PGRN
For B3, the Kd was 14.3 nM in test [10] and 14 nM in test [12]. Besides, the binding result in test [11] is given as “binds”.

B4: S-22 (antibody, V domains shown)
VH: QVQLVQSGAEVKKPGSSVKVSCKASGGTFSSYAISWVRQAPGQGLEWMGGIIPIFGTASYAQKFQGRVTITADESTSTAYMELSSLRSEDTAVYYCARQGRKTGYYYYYGMDVWGQGTTVTVSS
VL: DIQMTQSPSTLSASVGDRVTITCRASQSISSWLAWYQQKPGKAPKLLIYKASSLESGVPSRFSGSGSGTEFTLTISSLQPDDFATYYCQQADGHITFGGGTKVEIK
notes: IgG
Regarding B4, the dissociation constant (Kd) in test [1] was 0.99 nM; in [2], 1.12 nM; in test [3], 5 nM; in test [4], 2.4 nM. The MFI in test [5] is 23200; in test [6] it was 8940.

B5: S-22-3 Fab (Fab, V domains shown)
VH: B4 VH with S30R, I54G, S59W
VL: B4 VL
notes: Fab by papain digestion
With B5, the Kd in [7] is 0.698 nM; in [8], 1.43 nM; in [9], 0.097 nM; in [13], 1.2 nM.

B6: S-22-9 (antibody, V domains shown)
VH: B4 VH with S30R, S31N, F55G, T57W, S59N
VL: B4 VL
notes: IgG
Regarding B6, the values for the Kd in test [14] and in [15] were 5.12 nM and 0.81 nM, respectively.

B7: S-22-3 (antibody, V domains shown)
VH: B4 VH with S30R, I54G, S59W
VL: B4 VL
notes: IgG
Consider B7, for which the Kd in [14] was determined as 3.63 nM; in test [15], 1.08 nM.

B8: S-22-9 Fab (Fab, V domains shown)
VH: B4 VH with S30R, S31N, F55G, T57W, S59N
VL: B4 VL
notes: Fab by papain digestion
Regarding B8, the results for the Kd in test [7], in test [8] and in test [9] were 0.575 nM, 3.29 nM and 0.0048 nM, respectively.

B9: S-22-7 (antibody, V domains shown)
VH: B4 VH with I54G, T57R, S59N
VL: B4 VL
notes: IgG
B9: the results for the equilibrium dissociation constant (Kd) in [14] and in [15] were 4.78 nM and 2.65 nM, respectively.

B10: S-22-7 Fab (Fab, V domains shown)
VH: B4 VH with I54G, T57R, S59N
VL: B4 VL
notes: Fab by papain digestion
Regarding B10, the Kd was 0.508 nM in test [7], 0.751 nM in test [8], 0.098 nM in test [9] and 0.57 nM in test [13].
For Biotin-TKCLRREAPRWDAPLRDPALRQLL (also called hPGRN peptide) [biotinylated Progranulin C-terminal peptide], in [16], the binding result is “binds”.

B11: S-15 (antibody, V domains shown)
VH: QVQLVQSGAEVKKPGASVKVSCKASGYTFTSYYMSWVRQAPGQGLEWMGIINPSGGSTSYAQKFQGRVTMTRDTSTSTVYMELSSLRSEDTAVYYCARDPSGIAAAGPASRYYYGMDVWGQGTTVTVSS
VL: EIVMTQSPATLSVSPGERATLSCRASQSVSSNLAWYQQKPGQAPRLLIYGASTRATGIPARFSGSGSGTEFTLTISSLQSEDFAVYYCQQARLGPWTFGGGTKVEIK
notes: IgG
For the molecule B11, the Kd in test [1] was 2.3 nM; in test [2], 1.4 nM; in test [3], 6.4 nM; in test [4], 3.3 nM. In addition, the MFI in [5] is 17600; in test [6] it was 8740.

B12: S-15-3 Fab (Fab, V domains shown)
VH: B11 VH with Y32T, S54Y
VL: B11 VL
notes: Fab by papain digestion
Regarding B12, the Kd in test [7] came out at 0.943 nM; in test [8], 0.769 nM; in test [9], 0.26 nM; in test [13], 0.11 nM.

B13: S-15-14 Fab (Fab, V domains shown)
VH: B11 VH with Y32Q, S54Y
VL: B11 VL
notes: Fab by papain digestion
Turning to B13, the dissociation constant Kd stood at 1.04 nM in test [7], 0.758 nM in [8], 0.19 nM in [9] and 0.1 nM in [13].

Broadly, the Kd is the equilibrium constant for the complex coming apart.
